# Data taken from US20250296971A1, “GASTRIC INHIBITORY PEPTIDE RECEPTOR LIGANDS” (priority 2021, published 2025).
# *1 amine or outer side, *2 acyl side, *3 side chain or, on linkers, in order; H or OH if unused. Bridges are numbered along the chain shown (N, C = ends). [ ]: non-standard residue; d: D form. The star is where a group is joined. Ttds = 1,13-diamino-4,7,10-trioxatridecan-succinamic acid, NCCCOCCOCCOCCCNC(=O)CCC(=O)*; Pro(trans-4-NH2) = O=C([C@@H]1C[C@@H](N[*:3])CN1[*:1])[*:2]; DOTA = O=C(O)CN1CCN(CC(=O)O)CCN(CC(=O)*)CCN(CC(=O)O)CC1; Trp(5-Cl) = N[C@@H](Cc1c[nH]c2ccc(Cl)cc12)C(=O)O; Pyridine(2,6-diCH2) = c1cc(C[*:1])nc(C[*:2])c1; APAc = 4-amino-1-carboxymethylpiperidine; Pro(4S-NH2) = N[C@@H]1CN[C@H](C(=O)O)C1; Phe(2-Cl) = N[C@@H](Cc1ccccc1Cl)C(=O)O; mXylylene = c1cc(C[*:1])cc(C[*:2])c1; Glutaryl = O=C(CCCC(=O)[*:2])[*:1]; AGLU = 1-amino-1-deoxy-D-glucitol; dDap(NTASEROL) = not defined here; Hyp = O=C(O)[C@@H]1C[C@@H](O)CN1; Cysteamide = C(CS[*:3])N[*:1]; GLUSEROL = not defined here; NTASEROL = not defined here; Api = NC1(C(=O)O)CCNCC1; Thp = NC1(C(=O)O)CCOCC1; Aib = CC(C)(N)C(=O)O
# B1: NTASEROL-Asp-Trp-5Clw-Tap-Glu-leu-[Cys(2Lut)-Apc(DOTA)-Leu-Ile-Cys]-APAc-dap(NTASEROL)-NH2 (peptide)
# peptide: {NTASEROL}-DW[Trp(5-Cl)][Pro(trans-4-NH2)]E[dL]C[Api](DOTA)LIC-{APAc-dDap(NTASEROL)-NH2}
# modifications: linker 7-11 via Pyridine(2,6-diCH2); reading uncertain
# B2: AGLU-Glutar-Asp-Trp-5Clw-Hyp-Glu-leu-[Cys(2Lut)-Apc(DOTA)-Leu-Ile-AET] (peptide)
# peptide: {AGLU-Glutaryl}-DW[Trp(5-Cl)][Hyp]E[dL]C[Api](DOTA)LI[Cysteamide]
# modifications: thioether (positions not given here) via Pyridine(2,6-diCH2); not fully specified (bridges); printed as AGLU-Glutar-Asp-Trp-5Clw-Hyp-Glu-leu-[Cys(2Lut)-Apc(DOTA)-Leu-Ile-AET]
# B3: DOTA-Ttds-Asp-Trp-5Clw-Pro-Glu-leu-[Cys(3MeBn)-Apc(Ac)-Leu-Ile-AET] (peptide)
# peptide: {DOTA-Ttds}-DW[Trp(5-Cl)]PE[dL]C[Api](Ac)LI[Cysteamide]
# modifications: linker (positions not given here) via mXylylene; not fully specified (bridges); printed as DOTA-Ttds-Asp-Trp-5Clw-Pro-Glu-leu-[Cys(3MeBn)-Apc(Ac)-Leu-Ile-AET]
# B4: DOTA-Ttds-Asp-Trp-5Clw-Pro-Glu-leu-[Cys(3MeBn)-Aib-Leu-Ile-AET] (peptide)
# peptide: {DOTA-Ttds}-DW[Trp(5-Cl)]PE[dL]C[Aib]LI[Cysteamide]
# modifications: linker (positions not given here) via mXylylene; not fully specified (bridges); printed as DOTA-Ttds-Asp-Trp-5Clw-Pro-Glu-leu-[Cys(3MeBn)-Aib-Leu-Ile-AET]
# B5: DOTA-Ttds-Asp-Trp-5Clw-Tap-Glu-leu-[Cys(3MeBn)-Aib-Leu-Ile-AET] (peptide)
# peptide: {DOTA-Ttds}-DW[Trp(5-Cl)][Pro(trans-4-NH2)]E[dL]C[Aib]LI[Cysteamide]
# modifications: linker 7-11 via mXylylene
# B6: NTASEROL-Asp-Trp-5Clw-Tap-Glu-leu-[Cys(2Lut)-Apc(DOTA)-Leu-Ile-Cys]-APAc-GLUSEROL (peptide)
# peptide: {NTASEROL}-DW[Trp(5-Cl)][Pro(trans-4-NH2)]E[dL]C[Api](DOTA)LIC-{APAc-GLUSEROL}
# modifications: linker 7-11 via Pyridine(2,6-diCH2); reading uncertain
# B7: DOTA-Ttds-Asp-Trp-5Clw-4Ap-Glu-leu-[Cys(3MeBn)-Aib-Leu-Ile-AET] (peptide)
# peptide: {DOTA-Ttds}-DW[Trp(5-Cl)][Pro(4S-NH2)]E[dL]C[Aib]LI[Cysteamide]
# modifications: linker 7-11 via mXylylene
# B8: AGLU-Glutar-Asp-Trp-5Clw-Tap-Glu-leu-[Cys(2Lut)-Apc(DOTA)-Leu-Ile-Cys]-APAc-GLUSEROL (peptide)
# peptide: {AGLU-Glutaryl}-DW[Trp(5-Cl)][Pro(trans-4-NH2)]E[dL]C[Api](DOTA)LIC-{APAc-GLUSEROL}
# modifications: linker 7-11 via Pyridine(2,6-diCH2); reading uncertain
# B9: Ac-Asp-Ocf-5Clw-Hyp-Glu-leu-[Cys(2Lut)-Thp-Leu-Ile-Cys]-NH2 (peptide)
# peptide: Ac-D[Phe(2-Cl)][Trp(5-Cl)][Hyp]E[dL]C[Thp]LIC-NH2
# modifications: linker 7-11 via Pyridine(2,6-diCH2)
# Biological target: biotinylated extracellular domain of the human GIP receptor (bioGIPR) (human) (UniProt P48546)
# Test: SPR single cycle kinetics, bioGIPR captured on chip; category A: pKD >9.0
# Sequence of biotinylated extracellular domain of the human GIP receptor (bioGIPR) (human) (P48546 24-138 limits assumed): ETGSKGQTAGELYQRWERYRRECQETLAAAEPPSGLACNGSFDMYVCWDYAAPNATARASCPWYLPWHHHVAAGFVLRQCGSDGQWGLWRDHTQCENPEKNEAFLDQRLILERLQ
row,pKD [pkd],Molecule
1,> 9,B1
2,> 9,B2
3,> 9,B3
4,> 9,B4
5,> 9,B5
6,> 9,B6
7,> 9,B7
8,> 9,B8

# Biological target: human Gastric Inhibitory Peptide Receptor (human) (UniProt P48546)
# Test: FACS competition with GIP-057 on CHO-K1-hGIPR cells; pIC50 category A: >8.0
# Sequence of human Gastric Inhibitory Peptide Receptor (human) (P48546 22-466 limits assumed): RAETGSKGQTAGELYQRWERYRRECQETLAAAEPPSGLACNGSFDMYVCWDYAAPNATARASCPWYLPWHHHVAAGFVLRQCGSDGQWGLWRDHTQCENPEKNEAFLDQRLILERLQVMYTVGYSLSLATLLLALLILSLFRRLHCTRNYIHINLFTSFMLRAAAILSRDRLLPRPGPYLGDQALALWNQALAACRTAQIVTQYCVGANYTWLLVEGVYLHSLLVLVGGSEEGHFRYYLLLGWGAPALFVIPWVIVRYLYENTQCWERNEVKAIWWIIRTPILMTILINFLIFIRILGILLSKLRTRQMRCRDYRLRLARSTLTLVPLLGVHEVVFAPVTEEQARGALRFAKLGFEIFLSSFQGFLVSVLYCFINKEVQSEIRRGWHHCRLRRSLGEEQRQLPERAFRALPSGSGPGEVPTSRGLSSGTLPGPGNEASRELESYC
row,pIC50 [pic50],Molecule
1,> 8,B2
2,> 8,B3
3,> 8,B4
4,> 8,B5
5,> 8,B7

# Biological target: biotinylated extracellular domain of the human GIP receptor (bioGIPR) (human) (UniProt P48546)
# Test: SPR single cycle kinetics, bioGIPR captured on chip; category A: t1/2 >15 min
row,t1/2 [min],Molecule
1,> 15,B1
2,> 15,B2
3,> 15,B3
4,> 15,B4
5,> 15,B5
6,> 15,B6
7,> 15,B7
8,> 15,B8

# Biological target: human Gastric Inhibitory Peptide Receptor (GIPR) (human) (UniProt P48546)
# Test: FACS competition vs biotinylated GIP-057 on CHO-K1-hGIPR cells; category A: pIC50 >8.0
# Sequence of human Gastric Inhibitory Peptide Receptor (GIPR) (human) (P48546 22-466 limits assumed): as above
row,pIC50 [pic50],Molecule
1,> 8,B1
2,> 8,B6
3,> 8,B8

# Biological target: human Gastric Inhibitory Peptide Receptor (GIPR) (human) (UniProt P48546)
# Test: FACS competition vs biotinylated GIP-057 on CHO-K1-hGIPR cells; category B: pIC50 7.1-8.0
row,pIC50 [pic50],Molecule
1,7.1 to 8,Ac-Asp-Trp-5Clw-Hyp-Glu-leu-[Cys(2Lut)-Apc(DOTA)-Leu-Phe-Cys]-NH2 (peptide)
2,7.1 to 8,B9
